Experimental data from patent publication US20060134801A1, “Methods and compositions involving MDA-7” (Board of Regents, The University of Texas System, priority 2003, published 2006).

Columns and labels:
A549 tumor xenografts = assay: A549 xenograft tumors with 293-mda-7 cells (mixing and distant implant); format: in vivo, nude mice; conditions: 3 days postimplantation of 293-mda-7 cells
Method: […] 293 cells and 293-mda-7 cells were first tested for their ability to form tumors. […] No tumors formed at this cell concentration, so subsequent experiments were performed using this cell number. For in vivo mixing experiments, human lung tumor cells (A549) grown to 90% confluency were trypsinized, washed, and resuspended in sterile phosphate-buffered saline at a concentration of 5×10^6/ml. The tumor-cell suspension was mixed with an equal number (5×10^6/ml) of parental 293 cells or with 293-mda-7 cells, gently vortexed, and injected subcutaneously in nude mice (10^6 cells/animal) as described above. Each group comprised of eight animals, and the experiments were done twice. Tumor growth was monitored and measured as described previously (Saeki et al., 2002). At the end of the experiment, animals were euthanized by CO2 inhalation, and tumors were harvested for histopathological analysis, western blot analysis, and for CD31 and TUNEL staining.
To evaluate the systemic effect of sMDA-7 on tumor growth, subcutaneous tumors were established by injecting A549 tumor cells (5×10^6 cells) into the lower right flank of nude mice. […] The effect of sMDA-7 on tumor growth was monitored as described above. […]
Tumor tissues were stained for CD31 and TUNEL as previously described (Saeki et al., 2002). […] Tissue sections were analyzed and quantitated, and the results interpreted in a blind fashion.

iNOS = iNOS expression in melanoma cell lines (immunostaining of cytospins); format: cell-based, human; design: dose or concentration left out as unconfirmed; conditions: A375; 48 h
Method: Replication-deficient human type 5 adenovirus (Ad5) carrying the mda-7 gene was obtained from Introgen Therapeutics (Houston, Tex.). The mda-7 gene was linked to an internal CMV-EE promoter and followed by SV40 polyadenylation. Ad-Luc and Ad-CMV polyadenylation (luciferase and empty vector, respectively), were used as control viruses. Cells were plated 1 day before infection. […] Experimental conditions were optimized to achieve MDA-7 protein expression by >70% of cells, based on results of immunohistochemical staining.
[…] At baseline, these melanoma cell lines express high levels of iNOS and are negative for MDA-7. Forty-eight h after vector treatment, the cells were collected, and cytospins were prepared to analyze iNOS expression. […] It has been shown previously that MDA-7 is secreted by Ad-mda7-infected melanoma cells (Lebedova et al., 2002; Mhashilkar et al., 2001).

A375.S2 = assay: Trypan blue viability; format: cell-based, human; conditions: 40 ng/ml, 3 days
From the text: (§1) rhMDA-7 (IL-24) protein was purified from 293-mda7 cells using affinity chromatography. Various lots of protein ranged from 30% ->80% purity based upon silver stain. The rhMDA-7 protein was applied to melanoma cell lines, and cells assessed for viability using the Trypan blue assay. […] Treatment of melanoma cells with rhMDA-7 results in rapid activation (via phosphorylation) of STAT3. The cytotoxicity observed in melanoma cells is inhibited by anti-MDA-7 antibodies.
(§2) The mechanism of the anti-tumor activity of rhMDA-7 was also evaluated. Melanoma cells were treated with rhMDA-7 protein and assessed for apoptosis using the TUNEL assay. […] These studies were performed with purified rhMDA-7 protein. The melanoma cells have also been treated with supernatant from 293-mda7 cells or control 293 cells. Only the 293-mda7 supernatant causes cell killing.

MeWo = assay: Trypan blue viability; format: cell-based, human; conditions: 40 ng/ml, 3 days
From the text: as §1, §2

WM35 = assay: Trypan blue viability; format: cell-based, human; conditions: 40 ng/ml, 3 days
From the text: as §1, §2

SK-Mel-1 = assay: Trypan blue viability; format: cell-based, human; conditions: 40 ng/ml, 3 days
From the text: as §1, §2

A375 = assay: Trypan blue viability; format: cell-based, human; conditions: 40 ng/ml, 3 days
From the text: as §1, §2

WM793 = assay: Trypan blue viability; format: cell-based, human; conditions: 40 ng/ml, 3 days
From the text: as §1, §2

[1] = system: IRF-1 and IRF-2 in MeWo cells; assay: Immunoblotting of IRF-1 and IRF-2; format: cell-based, human; conditions: within 4 h
Method: Two×10^6 cultured melanoma cell lines were rinsed twice in ice-cold PBS and lysed in 60 μl of lysis buffer [25 mM Tris, 140 mM NaCl, and 1% NP40 (pH 7.5)] containing 5 mM EDTA, 0.2 mM orthovanadate, 10 mM NaF, leupeptin, aprotinin, and phenylmethylsulfonyl fluoride for 10 min on ice. Equal amounts of total protein (measured with DC Protein Assay Reagent; Bio-Rad Labs, Hercules, Calif.) were loaded on a standard 10% SDS polyacrylamide gel, and fractionated proteins were electroblotted onto a nitrocellulose membrane. Nitrocellulose membranes were blocked for 1 h at room temperature using 5% dry milk in 1× PBS and washed three times for 5 min each in PBS containing 0.05% Tween 20 at room temperature. The membranes were incubated overnight at 4° C. in a sealed bag with a 1:2000 dilution of IRF-1 and IRF-2 polyclonal antibodies in 10 ml of 5% dry milk/0.1% Tween 20 in 1× PBS. The membranes were washed three times for 5 min each in PBS containing 0.05% Tween 20, and then incubated with peroxidase-conjugated antirabbit IgG secondary antibody (Transduction Laboratories) at 1:2000 dilution in PBS with 5% dry milk and 0.1 % Tween 20 for 45 min at room temperature. The blots were visualized using an enhanced chemiluminescence detection kit (Amersham, Arlington Heights, Ill.).

HUVEC and HMVEC = assay: Endothelial cell proliferation assay (trypan blue); format: cell-based, human; conditions: 1, 5, 10, 50 ng/ml; 1 ng/ml bFGF; vs PBS
Method: To test the effect of sMDA-7 protein on cell proliferation, endothelial cells (HUVEC, HMVEC) were serum-starved overnight. The next day, cells were seeded in 2-well chamber slides (1−10^4/well). The cells were allowed to adhere and spread for 4-6 h, and fresh medium containing 1 ng/ml of bFGF as a proangiogenic stimulator, and various concentrations of sMDA-7/IL-24 (1, 5, 10, and 50 ng/ml) was added. Cells treated with PBS served as controls. Cells were then harvested 3 days after treatment and cell proliferation determined by trypan blue exclusion assay method as previously described (Saeki et aL, 2000). The effect of sMDA-7 on lung tumor cell (H1299, and A549) proliferation was also evaluated. The experimental conditions were the same as described above for endothelial cells except that tumor cells were not stimulated with bFGF.

B1: sMDA-7: soluble secreted human MDA-7 (IL-24) protein purified from stably transfected 293-mda-7 cells (protein)
chain: AQGQEFHFGPCQVKGVVPQKLWEAFWAVKDTMQAQDNITSARLLQQEVLQNVSDAESCYLVHTLLEFYLKTVFKNYHNRTVEVRTLKSFSTLANNFVLIVSQLQPSQENEMFSIRDSAHRRFLLFRRAFKQLDVEAALTKALGEVDILLTWMQKFYKL
B1 was tested, and the “serum level of circulating sMDA-7 by ELISA” value (A549 tumor xenografts) was “approximately 50 ng/ml”, the iNOS expression (iNOS) was “clear down-regulation” and the “% Dead” value (A375.S2) was 22.2%. The “% Dead” value (MeWo) was 20%, the “% Dead” value (WM35) was 17.6% and the “% Dead” value (SK-Mel-1) was 5.2%. The “% Dead” value (A375) was 26.6%, the “% Dead” value (WM793) was 5.2% and the “fall in IRF-1 expression” value [1] was roughly 4 fold. The “increase in IRF-2 expression” value [1] was 4.7 fold and the antiproliferative activity (HUVEC and HMVEC) was “no significant antiproliferative activity”.
